The record followed here is publication PMC2782133, “Interaction of HP1 and Brg1/Brm with the Globular Domain of Histone H3 Is Required for HP1-Mediated Repression” (PLoS Genetics, 2009).

One experiment has as its target T1, GST-HP1γ (human, UniProt Q13185 1-183).
T1 construct: HP1γ
As to the kind of experiment: pull-down; GST fusion proteins bound to agarose beads incubated with purified histones, recombinant B10-tagged H3 constructs or purified Brg1-flag; ELB buffer (50mM HEPES pH 7, 250mM NaCl, 1mM EDTA, 0.1% NP40); elution with 20mM glutathione; western blot (anti-H3, anti-B10 or anti-Brg1). Conditions: both partners purified.

In another experiment the target is T2, GST-HP1α (human, UniProt P45973 1-191).
T2 construct: HP1α, human; also called HP1α-derived GST-fusion protein
Described as above. Conditions: both partners purified.

T1 sequence (Q13185 whole entry): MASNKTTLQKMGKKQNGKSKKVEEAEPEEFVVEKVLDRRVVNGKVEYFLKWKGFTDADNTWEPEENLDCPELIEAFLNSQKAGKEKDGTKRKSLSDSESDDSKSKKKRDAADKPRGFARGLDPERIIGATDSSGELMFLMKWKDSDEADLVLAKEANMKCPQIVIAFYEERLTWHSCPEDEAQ
T2 sequence (P45973 whole entry, the tested form may be a part): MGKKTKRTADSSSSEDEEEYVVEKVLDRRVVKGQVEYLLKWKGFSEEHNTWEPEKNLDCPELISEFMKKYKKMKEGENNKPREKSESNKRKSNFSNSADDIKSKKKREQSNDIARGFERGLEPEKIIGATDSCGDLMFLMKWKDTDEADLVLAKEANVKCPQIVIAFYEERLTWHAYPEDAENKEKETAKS

B1: rH3(35–66), B10/6xHIS-tagged (domain or fragment)
chain: not shown
notes: histone H3 aa 35-66 (V35 to P66), recombinant; also called Shadock; histone H3 aa 35 to 66
Regarding B1, the binding result with GST-HP1γ is reported as “binds”. Also, the “fold excess of HP1α over Brg1 needed for similar binding” value in the experiment with GST-HP1α was approximately 50 fold.

B2: rH3(35–66)V46A, B10/6xHIS-tagged (domain or fragment)
chain: not shown
notes: histone H3 aa 35-66 with the valine of the PXXVXL motif mutated; also called mutant B10-tagged fragment of histone H3 (aa 35 to 66)
For B2, in the experiment with GST-HP1γ, the binding result is reported as “binds”.

B3: rH3(44–66), B10/6xHIS-tagged (domain or fragment, UniProt P68431 45-67, looked up)
chain: GTVALREIRRYQKSTELLIRKLP
notes: histone H3 aa 44-66, recombinant; also called histone H3 aa 44 to 66
B3: the binding result with GST-HP1γ is on record as “binds”.
